Reference: patent publication US20240124560A1

Tests used:
Assay in all cases: cell-based or functional assay
[1] = target: HIV-1 Env of pseudovirus NIH-102_6545.v4.c1 (HIV-1)
[2] = target: HIV-1 Env of pseudovirus NIH-086_X2131 C1 B5 (clade G) (HIV-1)
[3] = target: HIV-1 Env of pseudovirus NIH-022_ZM233M.PB6 (HIV-1)
[4] = target: HIV-1 Env of NAC_BaL.26 (HIV-1)
[5] = target: HIV-1 Env of NIH-025_ZM109F.PB4 (HIV-1)
[6] = target: HIV-1 Env of pseudovirus NIH-080_BJOX025000.01.1 (HIV-1)
[7] = target: HIV-1 Env of NIH-026_ZM135M.PL10a (HIV-1)
[8] = target: HIV-1 Env of isolate NIH-088_X1632 S2 B10 (HIV-1)
[9] = target: HIV-1 Env of NIH-019_Du422.1 (HIV-1)
[10] = target: HIV-1 Env of pseudovirus NIH-071_R1166.c01 (HIV-1)
[11] = target: HIV-1 Env of pseudovirus NIH-075_CNE8 (HIV-1)
[12] = target: HIV-1 Env of pseudovirus NIH-017_Du156.12 (HIV-1)
[13] = target: HIV-1 Env of pseudovirus NIH-026_ZM135M.PL10a (HIV-1)
[14] = target: HIV-1 Env of NIH-076_CNE5 (HIV-1)
[15] = target: HIV-1 Env of pseudovirus NAC_YU2 (HIV-1) (UniProt P35961)
[16] = target: HIV-1 Env of pseudovirus NIH-091_231965.c01 (clade D) (HIV-1)
[17] = target: HIV-1 Env of pseudovirus NIH-055_CNE58 (HIV-1)
[18] = target: HIV-1 Env of pseudovirus NIH-023_ZM249M.PL1 (HIV-1)
[19] = target: HIV-1 Env of pseudovirus NIH-011_1056.10.TA11.1826 (HIV-1)
[20] = target: HIV-1 Env of NAC_SF162 (HIV-1)
[21] = target: HIV-1 Env of pseudovirus NIH-036_Ce2010 F5 (HIV-1)
[22] = target: HIV-1 Env of pseudovirus NIH-006_AC10.0.29 (HIV-1)
[23] = target: HIV-1 Env of NIH-007_CAAN5342.A2 (HIV-1)
[24] = target: HIV-1 Env of NIH-119_T211.9 (HIV-1)
[25] = target: HIV-1 Env of pseudovirus NIH-064_0260.v5.c1 (HIV-1)
[26] = target: HIV-1 Env of pseudovirus NAC_TRJO.58 (HIV-1)
[27] = target: HIV-1 Env of NIH-072_R3265.c06 (HIV-1)
[28] = target: HIV-1 Env of NAC_IAVIC22 (HIV-1)
[29] = target: HIV-1 Env of NIH-071_R1166.c01 (HIV-1)
[30] = target: HIV-1 Env of pseudovirus NIH-072_R3265.c06 (HIV-1)
[31] = target: HIV-1 Env of pseudovirus NAC_SS1196.1 (HIV-1)
[32] = target: HIV-1 Env of pseudovirus NIH-085_X2088 c9 (clade G) (HIV-1)
[33] = target: HIV-1 Env of NAC_94UG103 (HIV-1)
[34] = target: HIV-1 Env of pseudovirus NIH-061_Q259ENVd2.17 (HIV-1)
[35] = target: HIV-1 Env of NIH-104_3103.v3.c10 (HIV-1)
[36] = target: HIV-1 Env of NAC_JRFL (HIV-1)
[37] = target: HIV-1 Env of pseudovirus NIH-118_T255.34 (HIV-1)
[38] = target: HIV-1 Env of NIH-050_CNE21 (HIV-1)
[39] = target: HIV-1 Env of NIH-022_ZM233M.PB6 (HIV-1)
[40] = target: HIV-1 Env of NIH-101_6540.v4.c1 (HIV-1)
[41] = target: HIV-1 Env of NIH-023_ZM249M.PL1 (HIV-1)
[42] = target: HIV-1 Env of NIH-046_1394C9G1(Rev.) (HIV-1)
[43] = target: HIV-1 Env of NIH-115_928.28 (HIV-1)
[44] = target: HIV-1 Env of pseudovirus NAC_REJO.67 (HIV-1)
[45] = target: HIV-1 Env of NAC_BG505 (HIV-1)
[46] = target: HIV-1 Env of NIH-114_T257.31 (HIV-1)
[47] = target: HIV-1 Env of NAC_DH12 (HIV-1)

## VRC01 (antibody)
[1]
  neutralization IC50: > 50 µg/mL
[2]
  IC50 (µg/ml), TZM-bl cell neutralization assay, pseudovirus: 0.073 µg/mL
[3]
  neutralization IC50: 1.41 µg/mL
[4]
  IC80 neutralization: 0.037 µg/mL
[5]
  IC80 neutralization: 0.296 µg/mL
[6]
  neutralization IC50: 6.04 µg/mL
[7]
  IC80 neutralization: 0.379 µg/mL
[8]
  IC80 (µg/ml), TZM-bl pseudovirus neutralization: 1.35 µg/mL
[9]
  IC80 neutralization: > 50 µg/mL
[10]
  neutralization IC50: 0.488 µg/mL
[11]
  neutralization IC50: 0.126 µg/mL
[12]
  neutralization IC50: 0.059 µg/mL
[13]
  neutralization IC50: 0.102 µg/mL
[14]
  IC80 neutralization: 0.238 µg/mL
[15]
  neutralization IC50: 0.123 µg/mL
[16]
  IC50 (µg/ml), TZM-bl cell neutralization assay, pseudovirus: 0.183 µg/mL
[17]
  neutralization IC50: 0.083 µg/mL
[18]
  neutralization IC50: 0.05 µg/mL
[19]
  neutralization IC50: 0.372 µg/mL
[20]
  IC80 neutralization: 1.03 µg/mL
[21]
  neutralization IC50: 0.153 µg/mL
[22]
  neutralization IC50: 0.867 µg/mL
[23]
  IC80 neutralization: 2.79 µg/mL
[24]
  IC80 neutralization: > 50 µg/mL
[25]
  neutralization IC50: 0.124 µg/mL
[26]
  neutralization IC50: 0.057 µg/mL
[27]
  IC80 neutralization: 0.502 µg/mL
[28]
  IC80 neutralization: 1.37 µg/mL
[29]
  IC80 neutralization: 1.95 µg/mL
[30]
  neutralization IC50: 0.126 µg/mL
[31]
  neutralization IC50: 0.166 µg/mL
[32]
  IC50 (µg/ml), TZM-bl cell neutralization assay, pseudovirus: > 50 µg/mL
[33]
  IC80 neutralization: 0.752 µg/mL
[34]
  neutralization IC50: 0.114 µg/mL
[35]
  IC80 neutralization: 6.21 µg/mL
[36]
  IC80 neutralization: 0.741 µg/mL
[37]
  neutralization IC50: 0.229 µg/mL
[38]
  IC80 neutralization: 0.848 µg/mL
[39]
  IC80 neutralization: 5.69 µg/mL
[40]
  IC80 neutralization: > 50 µg/mL
[41]
  IC80 neutralization: 0.197 µg/mL
[42]
  IC80 neutralization: 1.12 µg/mL
[43]
  IC80 neutralization: 0.99 µg/mL
[44]
  neutralization IC50: 0.106 µg/mL
[45]
  IC80 neutralization: 0.213 µg/mL
[46]
  IC80 neutralization: 6.57 µg/mL
[47]
  IC80 neutralization: 0.898 µg/mL

## 4E10 (antibody)
[1]
  neutralization IC50: 2.35 µg/mL
[2]
  IC50 (µg/ml), TZM-bl cell neutralization assay, pseudovirus: 0.194 µg/mL
[3]
  neutralization IC50: 1.05 µg/mL
[4]
  IC80 neutralization: 17.1 µg/mL
[5]
  IC80 neutralization: 3.17 µg/mL
[6]
  neutralization IC50: 0.377 µg/mL
[7]
  IC80 neutralization: 0.936 µg/mL
[8]
  IC80 (µg/ml), TZM-bl pseudovirus neutralization: 10.4 µg/mL
[9]
  IC80 neutralization: 5.66 µg/mL
[10]
  neutralization IC50: 0.383 µg/mL
[11]
  neutralization IC50: 0.087 µg/mL
[12]
  neutralization IC50: 0.101 µg/mL
[13]
  neutralization IC50: 0.133 µg/mL
[14]
  IC80 neutralization: 5.9 µg/mL
[15]
  neutralization IC50: 15.9 µg/mL
[16]
  IC50 (µg/ml), TZM-bl cell neutralization assay, pseudovirus: 13.8 µg/mL
[17]
  neutralization IC50: 0.563 µg/mL
[18]
  neutralization IC50: 1.44 µg/mL
[19]
  neutralization IC50: 0.688 µg/mL
[20]
  IC80 neutralization: 8.26 µg/mL
[21]
  neutralization IC50: 14.4 µg/mL
[22]
  neutralization IC50: 0.666 µg/mL
[23]
  IC80 neutralization: 12.1 µg/mL
[24]
  IC80 neutralization: 5.08 µg/mL
[25]
  neutralization IC50: 0.227 µg/mL
[26]
  neutralization IC50: 2.97 µg/mL
[27]
  IC80 neutralization: 2 µg/mL
[28]
  IC80 neutralization: 6.11 µg/mL
[29]
  IC80 neutralization: 1.77 µg/mL
[30]
  neutralization IC50: 0.491 µg/mL
[31]
  neutralization IC50: 0.99 µg/mL
[32]
  IC50 (µg/ml), TZM-bl cell neutralization assay, pseudovirus: > 50 µg/mL
[33]
  IC80 neutralization: 7.48 µg/mL
[34]
  neutralization IC50: 7.12 µg/mL
[35]
  IC80 neutralization: 32.4 µg/mL
[36]
  IC80 neutralization: > 50 µg/mL
[37]
  neutralization IC50: 0.326 µg/mL
[38]
  IC80 neutralization: 2.15 µg/mL
[39]
  IC80 neutralization: 4.99 µg/mL
[40]
  IC80 neutralization: 36.1 µg/mL
[41]
  IC80 neutralization: 5.77 µg/mL
[42]
  IC80 neutralization: 10.4 µg/mL
[43]
  IC80 neutralization: 0.438 µg/mL
[44]
  neutralization IC50: 1.87 µg/mL
[45]
  IC80 neutralization: 4.88 µg/mL
[46]
  IC80 neutralization: 4.71 µg/mL
[47]
  IC80 neutralization: 4.89 µg/mL

## PGZL1 (antibody)
[1]
  neutralization IC50: > 50 µg/mL
[2]
  IC50 (µg/ml), TZM-bl cell neutralization assay, pseudovirus: 0.885 µg/mL
[3]
  neutralization IC50: 5.9 µg/mL
[4]
  IC80 neutralization: > 50 µg/mL
[5]
  IC80 neutralization: 29.7 µg/mL
[6]
  neutralization IC50: 7.13 µg/mL
[7]
  IC80 neutralization: 2.08 µg/mL
[8]
  IC80 (µg/ml), TZM-bl pseudovirus neutralization: > 50 µg/mL
[9]
  IC80 neutralization: 30.5 µg/mL
[10]
  neutralization IC50: 4.87 µg/mL
[11]
  neutralization IC50: 0.247 µg/mL
[12]
  neutralization IC50: 0.623 µg/mL
[13]
  neutralization IC50: 0.296 µg/mL
[14]
  IC80 neutralization: > 50 µg/mL
[15]
  neutralization IC50: > 50 µg/mL
[16]
  IC50 (µg/ml), TZM-bl cell neutralization assay, pseudovirus: > 50 µg/mL
[17]
  neutralization IC50: 3.55 µg/mL
[18]
  neutralization IC50: 12.7 µg/mL
[19]
  neutralization IC50: 3.72 µg/mL
[20]
  IC80 neutralization: 48.6 µg/mL
[21]
  neutralization IC50: > 50 µg/mL
[22]
  neutralization IC50: 4.64 µg/mL
[23]
  IC80 neutralization: > 50 µg/mL
[24]
  IC80 neutralization: > 50 µg/mL
[25]
  neutralization IC50: > 50 µg/mL
[26]
  neutralization IC50: > 50 µg/mL
[27]
  IC80 neutralization: > 50 µg/mL
[28]
  IC80 neutralization: > 50 µg/mL
[29]
  IC80 neutralization: 19.5 µg/mL
[30]
  neutralization IC50: 28 µg/mL
[31]
  neutralization IC50: 5.4 µg/mL
[32]
  IC50 (µg/ml), TZM-bl cell neutralization assay, pseudovirus: > 50 µg/mL
[33]
  IC80 neutralization: > 50 µg/mL
[34]
  neutralization IC50: > 50 µg/mL
[35]
  IC80 neutralization: > 50 µg/mL
[36]
  IC80 neutralization: > 50 µg/mL
[37]
  neutralization IC50: 3.35 µg/mL
[38]
  IC80 neutralization: 17.8 µg/mL
[39]
  IC80 neutralization: 23.6 µg/mL
[40]
  IC80 neutralization: > 50 µg/mL
[41]
  IC80 neutralization: > 50 µg/mL
[42]
  IC80 neutralization: 34.3 µg/mL
[43]
  IC80 neutralization: 5.45 µg/mL
[44]
  neutralization IC50: 10.7 µg/mL
[45]
  IC80 neutralization: > 50 µg/mL
[46]
  IC80 neutralization: > 50 µg/mL
[47]
  IC80 neutralization: 19 µg/mL
